Test results reported in IntAct's records for PubMed 25910212.

B1: Acetylcholine receptor subunit gamma (Homo sapiens), P07510-2 (parent)
chain: MHGGQGPLLLLLLLAVCLGAQGRNQEERLLADLMQNYDPNLRPAERDSDVVNVSLKLTLTNLISLNEREEALTTNVWIEMQWCDYRLRWDPRDYEGLWVLRVPSTMVWRPDIVLENKSQTYSTNEIDLQLSQEDGQTIEWIFIDPEAFTENGEWAIQHRPAKMLLDPAAPAQEAGHQKVVFYLLIQRKPLFYVINIIAPCVLISSVAILIHFLPAKAGGQKCTVAINVLLAQTVFLFLVAKKVPETSQAVPLISKYLTFLLVVTILIVVNAVVVLNVSLRSPHTHSMARGVRKVFLRLLPQLLRMHVRPLAPAAVQDTQSRLQNGSSGWSITTGEEVALCLPRSELLFQQWQRQGLVAAALEKLEKGPELGLSQFCGSLKQAAPAIQACVEACNLIACARHQQSHFDNGNEEWFLVGRVLDRVCFLAMLSLFICGTAGIFLMAHYNRVPALPFPGDPRPYLPSPD
partner: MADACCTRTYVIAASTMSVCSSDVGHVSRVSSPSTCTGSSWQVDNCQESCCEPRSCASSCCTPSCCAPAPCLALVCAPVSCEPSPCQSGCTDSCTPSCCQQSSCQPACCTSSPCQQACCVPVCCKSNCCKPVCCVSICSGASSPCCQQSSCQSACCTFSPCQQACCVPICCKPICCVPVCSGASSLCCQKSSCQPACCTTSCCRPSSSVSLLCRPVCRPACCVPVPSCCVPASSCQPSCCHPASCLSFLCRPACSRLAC
B2: PiggyBac transposable element-derived protein 1 (Homo sapiens), Q96JS3 (parent)
chain: MYEALPGPAPENEDGLVKVKEEDPTWEQVCNSQEGSSHTQEICRLRFRHFCYQEAHGPQEALAQLRELCHQWLRPEMHTKEQIMELLVLEQFLTILPKELQPCVKTYPLESGEEAVTVLENLETGSGDTGQQASVYIQGQDMHPMVAEYQGVSLECQSLQLLPGITTLKCEPPQRPQGNPQEVSGPVPHGSAHLQEKNPRDKAVVPVFNPVRSQTLVKTEEETAQAVAAEKWSHLSLTRRNLCGNSAQETVMSLSPMTEEIVTKDRLFKAKQETSEEMEQSGEASGKPNRECAPQIPCSTPIATERTVAHLNTLKDRHPGDLWARMHISSLEYAAGDITRKGRKKDKARVSELLQGLSFSGDSDVEKDNEPEIQPAQKKLKVSCFPEKSWTKRDIKPNFPSWSALDSGLLNLKSEKLNPVELFELFFDDETFNLIVNETNNYASQKNVSLEVTVQEMRCVFGVLLLSGFMRHPRREMYWEVSDTDQNLVRDAIRRDRFELIFSNLHFADNGHLDQKDKFTKLRPLIKQMNKNFLLYAPLEEYYCFDKSMCECFDSDQFLNGKPIRIGYKIWCGTTTQGYLVWFEPYQEESTMKVDEDPDLGLGGNLVMNFADVLLERGQYPYHLCFDSFFTSVKLLSALKKKGVRATGTIRENRTEKCPLMNVEHMKKMKRGYFDFRIEENNEIILCRWYGDGIISLCSNAVGIEPVNEVSCCDADNEEIPQISQPSIVKVYDECKEGVAKMDQIISKYRVRIRSKKWYSILVSYMIDVAMNNAWQLHRACNPGASLDPLDFRRFVAHFYLEHNAHLSD
partner: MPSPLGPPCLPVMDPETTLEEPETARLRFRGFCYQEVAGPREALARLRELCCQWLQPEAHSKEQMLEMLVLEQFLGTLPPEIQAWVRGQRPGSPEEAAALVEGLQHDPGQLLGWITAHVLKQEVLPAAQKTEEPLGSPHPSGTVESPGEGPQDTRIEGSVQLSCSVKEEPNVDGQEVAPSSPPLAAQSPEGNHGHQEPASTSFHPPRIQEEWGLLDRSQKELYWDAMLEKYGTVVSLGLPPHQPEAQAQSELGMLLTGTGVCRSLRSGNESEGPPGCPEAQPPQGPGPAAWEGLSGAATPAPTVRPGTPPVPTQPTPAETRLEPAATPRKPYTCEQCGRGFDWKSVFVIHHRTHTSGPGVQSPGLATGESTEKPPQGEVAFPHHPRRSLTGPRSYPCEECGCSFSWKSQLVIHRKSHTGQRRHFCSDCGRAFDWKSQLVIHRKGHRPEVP
B3: Acetylcholine receptor subunit gamma (Homo sapiens), P07510-2 (parent)
chain: B1 chain
partner: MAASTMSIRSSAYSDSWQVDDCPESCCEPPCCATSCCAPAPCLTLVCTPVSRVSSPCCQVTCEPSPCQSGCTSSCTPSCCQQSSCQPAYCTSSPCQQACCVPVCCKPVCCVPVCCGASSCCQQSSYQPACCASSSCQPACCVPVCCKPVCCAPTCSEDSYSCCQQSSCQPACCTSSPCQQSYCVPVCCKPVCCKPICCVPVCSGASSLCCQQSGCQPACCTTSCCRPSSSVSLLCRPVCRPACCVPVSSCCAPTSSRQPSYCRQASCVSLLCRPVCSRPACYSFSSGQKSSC
B4: Krev interaction trapped protein 1 (Homo sapiens), O00522 (parent)
chain: MGNPENIEDAYVAVIRPKNTASLNSREYRAKSYEILLHEVPIEGQKKKRKKVLLETKLQGNSEITQGILDYVVETTKPISPANQGIRGKRVVLMKKFPLDGEKMGREASLFIVPSVVKDNTKYTYTPGCPIFYCLQDIMRVCSESSTHFATLTARMLIALDKWLDERHAQSHFIPALFRPSPLERIKTNVINPAYATESGQTENSLHMGYSALEIKSKMLALEKADTCIYNPLFGSDLQYTNRVDKVVINPYFGLGAPDYSKIQIPKQEKWQRSMSSVTEDKERQWVDDFPLHRSACEGDSELLSRLLSERFSVNQLDSDHWAPIHYACWYGKVEATRILLEKGKCNPNLLNGQLSSPLHFAAGGGHAEIVQILLNHPETDRHITDQQGRSPLNICEENKQNNWEEAAKLLKEAINKPYEKVRIYRMDGSYRSVELKHGNNTTVQQIMEGMRLSQETQQYFTIWICSENLSLQLKPYHKPLQHVRDWPEILAELTNLDPQRETPQLFLRRDVRLPLEVEKQIEDPLAILILFDEARYNLLKGFYTAPDAKLITLASLLLQIVYGNYESKKHKQGFLNEENLKSIVPVTKLKSKAPHWTNRILHEYKNLSTSEGVSKEMHHLQRMFLQNCWEIPTYGAAFFTGQIFTKASPSNHKVIPVYVGVNIKGLHLLNMETKALLISLKYGCFMWQLGDTDTCFQIHSMENKMSFIVHTKQAGLVVKLLMKLNGQLMPTERNS
partner: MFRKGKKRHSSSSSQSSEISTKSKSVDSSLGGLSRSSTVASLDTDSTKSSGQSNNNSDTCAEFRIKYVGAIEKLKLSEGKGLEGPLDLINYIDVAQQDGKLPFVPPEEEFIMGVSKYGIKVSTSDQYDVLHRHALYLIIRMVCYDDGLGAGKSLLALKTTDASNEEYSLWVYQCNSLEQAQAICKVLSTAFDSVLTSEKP

Variants of: B1
Conditions: with kr108_human KRTAP10-8, P60410

| effect of a mutation on the interaction | Variant |
| --- | --- |
| disrupting interaction strength | R187C |

Variants of: B2
Conditions: with zn446_human ZNF446, Q9NWS9

| Variant | effect of a mutation on the interaction |
| --- | --- |
| G244E | with no effect |
| Q248E | with no effect |

Further lines, results first:

| effect of a mutation on the interaction | Variant |
| --- | --- |
| with no effect | P256L |
| with no effect | H806D |
| with no effect | I678V |

Variants of: B3
Conditions: with kr109_human KRTAP10-9, P60411

| effect of a mutation on the interaction | Variant |
| --- | --- |
| disrupting interaction strength | V107G |
| disrupting interaction strength | R187C |
| disrupting interaction strength | R86C |

Variants of: B4
Conditions: with itbp1_human ITGB1BP1, O14713

| effect of a mutation on the interaction | Variant |
| --- | --- |
| with no effect | D137G |
